The supplement of paper PMC12042874
± gives the uncertainty stated by the source.

assay: amyloid nucleation score (Sup35N fusion, yeast selection) (log enrichment); library NNK1; higher = more nucleation; inactive = no reads after selection
Summary of the method: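 Output and input plasmid inserts were sequenced by Illumina after psi-negative yeast carrying Sup35N fused to peptides of 20 random codons had been induced 24 hours with 100 μM copper sulfate and grown 7 days at 30°C on medium lacking adenine and uracil. The nucleation score is the DiMSum log enrichment of output over input reads, centred on the mode score of non-aggregating sequences. Sequences with under 100 input reads were excluded.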

| Substance | amyloid nucleation score |
| --- | --- |
| LFKLSLGCTYCSFA | -0.292 ± 0.42 |
| LFLFTGLSSRSLHMCIYEIL | -0.046 ± 0.34 |
| LFLGMSNGLFLRMISRGCKW | -0.243 ± 0.33 |
| LFMLSSVGASMYFMG | 1.69 ± 0.19 |
| LFMLWLCCIKVFNKGCFGRS | -0.297 ± 0.26 |
| LFPRVMN | 0.338 ± 0.58 |
| LFRFNWLDSNPV | inactive |
| LFRGDGFRKLLFWNSSTFET | 2.67 ± 0.12 |
| LFRIIWGCS | inactive |
| LFRIPDWPEL | -1.07 ± 0.77 |
| LFRWVLLFFVRT | inactive |
| LFSNTNK | inactive |
| LFSSYSLEE | 1.1 ± 0.77 |
| LFSWFWNEI | 0.658 ± 0.72 |
| LFTIMTLDCNFRLSGLSLAI | 0.236 ± 0.21 |
| LFTTWMSRGDIVSYNFFL | 7.681 ± 0.049 |
| LFVGRGIAFVSFGPLALS | 3.83 ± 0.08 |
| LFWWKE | -0.292 ± 0.44 |
| LFYPFTLHWVCCSWCLYEVR | 6.927 ± 0.056 |
| LGAMRLFTRSLFLADWKYDV | -0.04 ± 0.45 |
| LGFSSVYWESCSL | -0.275 ± 0.58 |
| LGFVDISGSYEVLGGYPSLR | 0.031 ± 1.2 |
| LGGFYTRRCVCSLGTRQERE | -0.072 ± 0.49 |
| LGHGLDRMKLRTECNCTVVD | -0.503 ± 0.3 |
| LGICLLCTDIWDRVGNLCSL | -0.041 ± 0.33 |

| Substance | amyloid nucleation score |
| --- | --- |
| LGLTYWCYNFIQGDVFPPVQ | 3.46 ± 0.15 |
| LGLYSVCC | -0.219 ± 0.3 |
| LGPNFGTKFNMGCY | -0.304 ± 0.24 |
| LGSILV | -0.751 ± 0.94 |
| LGTLNAGHTRDVDGAMGYVW | 0.252 ± 1.1 |
| LGYIEKFWVGGHYLFLPTIY | 0.073 ± 1.5 |
| LHCYFAFDLLWIALRTTVRI | -0.457 ± 1 |
| LHDQCLAHGQWCNTWGK | -0.022 ± 0.39 |
| LHFVERLSLRPMGVVGFSRK | -0.178 ± 0.7 |
| LHLNLLAQDHLCREMTAAMS | -0.771 ± 1.7 |
| LHLVTYFVTYVLYSFSISAS | -0.268 ± 0.7 |
| LHLWCLQSFYMCWKCPPILE | 2.57 ± 0.26 |
| LHNYLLCTRVNRIDVLRMTL | -0.854 ± 0.37 |
| LHPVLALPAFNVDRNSMPC | -0.335 ± 0.52 |
| LHRIVTVNIP | 1.23 ± 0.8 |
| LHRSRFHDNTTSNGLLKGTV | -0.574 ± 0.6 |
| LHRYNYLVYRSTKCMFGVLI | 0.222 ± 0.52 |
| LHSIDVDIDVEFLSTHRDGP | inactive |
| LHTKVV | 0.431 ± 0.77 |
| LHTRGLEMFRIGPSCCKWPL | 1.49 ± 0.68 |
| LIALLLAWDMYI | 0.18 ± 0.32 |
| LIEDHVLYHVRAKKYRSHYI | -0.381 ± 0.79 |
| LIFSNNWFYYTFYDS | 5.85 ± 0.087 |
| LIFVKDVTLVMHGEERYRRS | 5.508 ± 0.049 |
| LIHSRKVLSSMTYIEGPLTS | 0.166 ± 0.34 |

| Substance | amyloid nucleation score |
| --- | --- |
| LIISFVIVSRMLSVRFSTIV | 0.262 ± 0.61 |
| LIKLLRVKRMYASYLFSNKV | -1.33 ± 1.6 |
| LILCCPYNFNLVLMCCPKVG | 7.268 ± 0.049 |
| LILEHNFWVRISYELVPCFW | 1.15 ± 0.3 |
| LILFVGIYTLHYYGFNRRYS | 0.272 ± 0.69 |
| LILILNGMRNWSLAEDGACS | 0.326 ± 0.85 |
| LISFEHEFKRCHCALVTWT | -0.048 ± 0.3 |
| LISLRVHYAASLFFFPVDDF | 0.998 ± 0.93 |
| LISNRPMW | 0.29 ± 0.48 |
| LIVVVTLSGEHRFSVMVYRN | -0.001 ± 0.64 |
| LIYPGIVDFVFSDARQGCSR | 1.08 ± 0.69 |
| LKCLFLIAIFYIINCCSNLS | inactive |
| LKCRLLVQTQLSESRGMWTS | 0.316 ± 0.7 |
| LKIEPRC | -0.512 ± 0.4 |
| LKRMFFSNVLFFGSMIAGNR | 0.162 ± 0.59 |
| LKTWVDFRDYLLAPKAVCIY | 0.161 ± 0.57 |
| LKVERMTRKPHGVELLSFRR | -0.163 ± 0.97 |
| LKVLYLRSDRVSWVSKPLVI | -0.405 ± 0.87 |
| LKVPCL | -0.067 ± 0.59 |
| LKYCYGTT | 0.171 ± 0.29 |
| LLAVAGPLLWLYRYMISFIS | 0.071 ± 0.97 |
| LLCYCVAELLDNTRRAT | 0.328 ± 0.57 |
| LLDARWRTYSFRVAMLWGRR | inactive |
| LLDKTTVKVILCLFNDTINL | 7.855 ± 0.043 |
| LLEALQNLGRLLITTPLVV | 0.475 ± 0.84 |

| Substance | amyloid nucleation score |
| --- | --- |
| LLFCQNDSGVVRLMLTVFLR | -0.791 ± 1.2 |
| LLFLYSLNLSRHLY | 0.71 ± 1.1 |
| LLGMRFSVVPSPATFGWTHF | 1.81 ± 0.18 |
| LLHCKVICRRCCVIWSSCSI | 2.09 ± 0.46 |
| LLICADVITFCFECTMRTGF | 4.13 ± 0.064 |
| LLIDSPCNWCTRGRSCKFSY | inactive |
| LLIRLLGQ | inactive |
| LLISDAVVYLFWTPENHSTW | 1.2 ± 0.56 |
| LLIWRN | 0.995 ± 0.62 |
| LLLFFNYNLSVIWWVYGRKS | 1.23 ± 0.47 |
| LLLLAIIDRYSIWK | -0.183 ± 0.41 |
| LLLLVRFYGSGSPHSGAEPI | -1.14 ± 1.5 |
| LLLSSLTDFHVVDRLIKQAW | -0.003 ± 0.41 |
| LLNMCNNESTLERNPF | 1.93 ± 0.37 |
| LLNRSALCWMCCTKDSWLLT | 7.073 ± 0.061 |
| LLPLLSMGRTPLRCKPMASS | 0.058 ± 0.3 |
| LLQGCNEVPVRKSKVVSSVR | 0.441 ± 0.24 |
| LLRVVKHCLCWNRYNDSDAG | 1.05 ± 0.34 |
| LLRWLRTVVSGGCVSVNLVE | 0.034 ± 0.28 |
| LLSATFLLMSTCY | 0.34 ± 0.29 |
| LLSGNGQRLSSEQTCRELVG | -0.727 ± 0.28 |
| LLSHQVTPSGRYSFSLCKSW | 0.873 ± 0.84 |
| LLSPFCVVLGSSTTGTMVNM | 0.287 ± 0.62 |
| LLWNDCGFLRWASGH | 2.59 ± 0.11 |
| LMDNCVRR | -1.06 ± 1.9 |

| Substance | amyloid nucleation score |
| --- | --- |
| LMEFHLYQMYSLRLVARRWW | 1.32 ± 0.38 |
| LMFAISKIKIF | inactive |
| LMKCCNVMGCGDDA | 2.45 ± 0.15 |
| LMLERFRLLYNEDFGGKVMF | 0.448 ± 0.47 |
| LMLPFVYS | 0.392 ± 0.37 |
| LMLVHRVF | -0.034 ± 0.51 |
| LMNICRNVARG | -0.876 ± 0.71 |
| LMPPSG | 0.072 ± 0.69 |
| LMSYSECQLSLNAYRGGRVE | 0.373 ± 0.55 |
| LMWCGSANMY | 0.632 ± 1.2 |
| LNALFYLKWALRRWSRKYCE | 1.39 ± 0.79 |
| LNCCYKKNVGIQDMRTMDIQ | 0.247 ± 1.1 |
| LNFDNFLLMWTMLVNRIISD | 0.574 ± 0.97 |
| LNLLYASWYYSFGVR | -0.194 ± 0.24 |
| LNMLMMVGVWGYFVITIHTI | 0.68 ± 0.71 |
| LNNTVEDPA | 0.892 ± 0.92 |
| LNRVFEDHWVLTLAVLHTSR | inactive |
| LNSSIYDLSHTVAGCHPALT | -0.293 ± 1.3 |
| LNVGV | -0.215 ± 1.7 |
| LNVGVLGGRLLSGALVNSTM | 0.396 ± 0.65 |
| LNWNCITCTLNFVKYVTDCR | 7.866 ± 0.046 |
| LNYIQNC | inactive |
| LNYSWDWLVVCIVANVRTYD | 2.22 ± 0.12 |
| LPCKIKKWIHWEFRSEFN | -2.06 ± 2.7 |
| LPGVFAPCSDYLMVMDVGHS | -0.409 ± 0.35 |

| Substance | amyloid nucleation score |
| --- | --- |
| LPIRASGNHL | 0.495 ± 0.79 |
| LPSDSFAVI | 0.483 ± 0.81 |
| LPTSTVSCQNWDTLLTLCSG | -0.094 ± 0.77 |
| LPWRRGWSFSTLVSLTGLSA | 0.353 ± 0.31 |
| LQAAGLRFGRICLFLDK | -0.259 ± 1.2 |
| LQDFGKHPTLRCTVYRLHRP | -1.02 ± 0.83 |
| LQILLLVSCLSQYAANKRRA | -0.291 ± 0.57 |
| LQLCLPVFNHVMHVNWMRFY | -0.837 ± 2.4 |
| LQRCAKLYSMSILTYAIIRF | -0.525 ± 0.28 |
| LQRLY | -0.251 ± 0.35 |
| LQSAVRWWHFDSRLGEAKLM | 0.902 ± 0.69 |
| LQSFVLLGDRIYRRFCVLMN | 0.048 ± 1.2 |
| LQTLGNWLHFKYAYWLLSNL | -0.55 ± 0.72 |
| LQTSRHFSLRWWCMYSWGNS | 1.41 ± 0.51 |
| LQYAKRDDIDSDVLLYKMYG | 0.203 ± 0.97 |
| LRARMCYRAPLRFR | -0.257 ± 1.7 |
| LRARVGGVEFVYSVQRRLKP | -0.167 ± 0.62 |
| LRASAWHQFHFAV | 0.376 ± 0.78 |
| LRFLWRRRS | 0.949 ± 0.28 |
| LRFMCRYFLRQRNYEPWFYG | 0.1 ± 0.55 |
| LRGRSPNYEALKMLYFFLLV | 0.314 ± 1.4 |
| LRHFSRSF | 0.16 ± 0.29 |
| LRKNSPTFRGSPCQQWYVER | 1.27 ± 0.56 |
| LRKVGQGI | 0.066 ± 0.67 |
| LRMFFDSTTILKLYERSWNI | 0.777 ± 1.2 |

| Substance | amyloid nucleation score |
| --- | --- |
| LRNVVSYREDFECSWGCHRG | 0.724 ± 0.32 |
| LRRGKLDLDHPLVNKWRKKG | -0.005 ± 0.67 |
| LRSEEVFTHMRAGVAKSFWD | 0.461 ± 0.72 |
| LRVKSSGDLSLSGSFDCDV | 0.199 ± 0.64 |
| LRVMKKRLVDATHNFVPVAN | 4.33 ± 0.075 |
| LRVPRCMIKRLHYGICPSSG | 0.094 ± 0.91 |
| LRYAG | -0.87 ± 0.53 |
| LRYIMPDND | -1.09 ± 1.5 |
| LSCWLYNPGYCVSVEFC | 6.906 ± 0.056 |
| LSFEIFMNVTRPSICHKVSL | -2.04 ± 2.4 |
| LSFLLEASNHDWDGSLG | inactive |
| LSFLSSVSDLIKLSSIFYGY | -0.264 ± 0.37 |
| LSGERNVMCSVWACLGRDYR | 8.102 ± 0.047 |
| LSHRGVLVAMDRTMYPM | -0.621 ± 0.42 |
| LSISRCSGRAV | inactive |
| LSKCTKRKFTMCWDSLVRK | 0.779 ± 0.26 |
| LSKVVFGLWFCT | 0.299 ± 0.34 |
| LSLKASDMRIGRYRSDKATF | 1.18 ± 0.79 |
| LSLSLMLGDIPSTIMRGCFR | inactive |
| LSNYYHDGILVIMRSATNDH | 1.61 ± 0.41 |
| LSPSSMN | inactive |
